Assay: soluble on expression in E. coli; label from the status in PepcDB or PDB records

Soluble on expression in E. coli, not soluble:
MGSDKIHHHHHHMDLTQLRMFCLVAETGSVARAAEQLHRVPSNLTTRLRQLELELGTDLFIREKQRLRLSPIGHNFLCYAQRILALSEEAISMTRTGEPAGNFALGSMESTAATRLPTLLAAYHQRYPNVSLSLNTGTSGEIIERVRAGTLAAALVDGPVVYDELNGCSCFAEQLVLISDPSHSPITHARDASNDTLFAFRPSCSYRKRLENWFRQDGVVPGTIMEIHSYHAMLACVASGSGLAMLPYAVLESLPAGARVQVHELPPDIAAASTWLVWRRDAFGPNVEALKKLIIEQSAQSE, MGSDKIHHHHHHMDRFLSIEAFVRVAEASSFAEAARQLGVTSSVVTNRIQQLEKFVNAPLFHRSTRHVRLSEVGETFYRECAEVVGRVNELTDQMRELRATPTGRLRIQMLPGFALDHFGVPLAEFNRRYPGIQLDIIVNDRVVDPVEEGFDIAFQIFPPISESLIERRLFVVRRLFCASPAYLDAHGAPQHPRELLQHTTALYSGYPSRNRWTMTRGDEVVEMELPGMIRSNSVHLLREYALTGGGVVCLPTLVASEALVAGRLVPILTDFEIAPLSFAAVYPATQRQALKVKALVEFLAEYIGDESPWDRPLLERGWVR, MGSDKIHHHHHHMDRIGIDTWANISAEGWSSLLLGNGASIAIHKEFAYPTLHGIADAKGLLATTAPIFAKLGTTDFEHVLLACWYAEHVNGALGTPSAAISAAYEEVRTALIEAVHSVHPVHADVAADLQRVGAFASAFPTVVSLNYDITLYWAMLLFNAANGSWFKDAFHDGEFQTDWEYLRRPYGHAAGATLVFYPHGSLAVARDYLGDETKLSVGAGAAGDLLGTITRRWASGHYVPVFVSEGTSHQKVAAIRRSHYLTNVYEEVLPALGESLVVYGWSFDERDQHVLAAIAANPPKRMAVSVFTGQPDGDQQAFCLQVLKAVGRSLPGTEVTFFDSRSPGCWNNP, MGSDKIHHHHHHMDTELARTFLTVAATGNFVAAASRLHVTQSTVSARIQTLETTLGARLFQRGRNGAELTASGKRFLRHAKHLVRTVEQALHDVGLPQGFHDVLTLSGRIALWEGFLPHWVAWMREAAPDVSLRLEIGFEADIMQGLIEGTTDIGVMYTPTSRPGLVVEPLFDENLMLVTSDLARGWPEEGYIHIDWGPEFHAQFSDHFPDAPPPTVVANIGWLGVQQLLTYGGSGYFPQRLVRQLIEDGRLWRVPDSPQFKLTAWMVFPREGSATLKSALDGLRTLARDEQARL, MGSDKIHHHHHHMDVAAEYPVDKPDTQVSVRDVFGIESDLTVPAFTEVSEHVPDRDDAYCFDRDTTLAVLAGFAFNRRVMIQGYHGTGKSTHIEQIASRLNWPCIRVNLDSHVSRIDLVGKDAIVLRDGLQVTEFREGILPWCLQRPIALTFDEYDAGRADVMFVIQRVLEVEGRLTLLDQNKVIRPHPYFRLFATANTVGLGDTTGLYHGTQQINQGQMDRWNIVATLNYLEHDVEVGIALAKRPEYDTPEGRAKINAMVGVADLSRSGFINGDISTVMSPRTVLTWAENATIFGDDAFAFRVTFLNKCDETERPIIAEYYQRCFGKELPESAAFRTAFL, MGSDKIHHHHHHMDVDLGKLFFCGFNDFNEEVKEIIRKYRPTGILIYPGVLSKEYLLMDFMSFLSKEGDFLISSDHEGGQLEVLKYVPSSPGNLAFGKNSPDVTYRYSRVAGKIMEIVGLNMVFAPVLDLLSEESSSVIDIRSYGSDPKIVAEHGARACEGYLEGGVIPCIKHFPGHGKAREDSHLTLPVVDAPFEKLWEEDLLPFRKVLEREKKVTVMTAHVRYSSIDSLPATLSEKIITDVLREKIGFDGLVISDAMEMSAVSNNFSVEEIVSLFLNAGGNMILLGDYRNLPVYYETLVKLLEDGKVQKDKVERSIRTVEKYLAFAKKNSGVGFLADVSMKAVEFLGFEKIDHTSEVTLLVPSSENLSQADTTGGDYDQIPEIVSRFFEVENVVRYTVEDGPEFVEGDLIFDFVADIPNEKALKAHLSLPAEKTVYFVLRNPFDVRYFEGRKIVVTRSTKPISIYKSLEHFLGRCDS, MGSDKIHHHHHHMDVENIFRDVKLSKTEMTVLRFIQNDPEQCIRQGVRAVAEQCYSNPSSLVRLAKKLKFSGWLELVYFIKFNITMPKLDVTNDIDYMSVQPEEALTPLLASLNQQRILIHGSGFSQLIAQYIYNKFLVTGVNASLALWPDYEILEQKNAACFDSIWIISKSGRSSSALNWVKALEGKEINLVCFTGDYQSPLAQAADTAFIIHDPQKFDDDIYWSNPFFGYCILGFERLLKMWFTSLRSNS, MGSDKIHHHHHHMDWEDAPLPYKLYRNVPIIPLSLEIPLSLPNSSTTPTLNEIGHYLWCSFGLTQLCQLNSEKILFRRSIPSGGALYPNELYIYLKIDDYPDGIYHYDAAHHRLILIREGNFDSYLTEALGNRCNLQSCFGAAFVSTMFWKNFFKYNNFSYRLQGLDSGVLIGQLLECAKQFGYTNGVYFQFLDRAINHLLGLSEGEESVYAVLPFSTEPQTNWFHNDYREIKTVTSHELLQQIPPLAHEHFVRSKHVNEYPMITKINEASMIESTAQFQTLAHEEHFQHHAHAVQLPKVERLSYDFLQLCRKRYSPDADFILTKWDAAELATLLQEASLSFPYYNDLDGQYVNENARVSLYGCFYNVKDIENGAYSYNSKTHSIQPLRYGDLRYPLQSSMTMDNVNLFQVPLCLHVVGKKDYYTNALGYRGYRIHQMEAGILVHKLVFAATAMGMAGHPLLSFDTNSCDQLYGIEAGNETSLIQIPVGAYRARNWLKGALRN, MGSDKIHHHHHHMEEANFYHALKIDNDRCIGCTHCMKECPTGAIRIRDGKALIHKDWCVDCGECLKSCPTEAIYVEQDDFQRIFDYKCRVALMPTVFIGQFSKYTTEKEIISAVMELGFTHVFQVEFTADMIHKEMVRQMENAEEKPVISSFCPAIVRLIQVRFPALVDNILLVKAPVNASATYYHKILEGQGVPSEEIGIFYVTPCAAKIAALKGAEGYSSTIKGVINMDTLYNKVYHILKNRPRGYEPECELPPPLTKKEMRWSQTGGEAKHFSGRCLAIDEIHNVIDFLERMETTSEVRNVDFLELRACDRSCAGGVLAVANRFLTAERIMKRSMNRDKVPMIYAADNFEALSYLRQHITIRPVQPNPKRLYDGTIDEMLKKMEQVRKLMCYLPGIDCGACGSPNCQSLAEDIVRHEAQFSDCVFMQRNMEKHGKLDQEHAFRIVEKTWGKDRLNKDCYKKGAKYEGL, MGSDKIHHHHHHMEEKKALIIVDVQKAFDDKKWGERNNVKAEENISKILELWREKGWTVIYIQHTSDKPHSLFHPKNEGFAIKEIVKPMDEEVIITKTVNSSFIGTNLEEFLKLNEITTVVITGLTTPHCVSTTTRMSGNLGFDTYLISDATAAFGMRDQNDTYYDAATIHNISLATLHDEFATILTTDQLINDFIKTH, MGSDKIHHHHHHMEELREAFEEGKPVILIDRNRENEADFVFPAQLITEDVVSFFVTYGKGLFCVTADEEDLLKRGFVKLSSNYGANYFVPVDWGTGTGISALERAETCRKLAEGRYFHEFRYPGHVTVIGGIGFQRRKGHTEASLEISELAGFSRHAVIVEILDEKGNSHNLDYVLKLSEKFSLPVLEMDDVWREFVKRKLLMKKKAEATLPTDFGVFKVVSFENHLDGKEHFAIVKEPLEDPVAVRIHSECVTGDVLSSLRCDCGSQLANFLRYMSAHGGILIYLRQEGRGIGLSNKIAAYSLQDKGLDTVEANRVLGFSEDERDYAPAAQILKALGIERVLLFTNNQRKTVGLEKYGIEVVETKRLYGRVTPHNRFYLSTKMKKLGHELEEIFREVNS, MGSDKIHHHHHHMEETVQRIEPARLEDVAEPISDALAELSASSAVLGAKLHPRTAANLADLVRIMNTYYSNLIEGHNTRPRDIERALAGEFDKDQERRNLQVEAAAHVRLQGEIDRLAAEGQLPEPASLDFLRWLHAEFYRDADEAMLRIRGPDREFLMVPGRWRSQPEHDVTVGRHQPPSSDRVEAFMEHFASRYRFQRTGKAARILAIPAAHHRFNYIHPFPDGNGRVSRLMSHAMAHEAGIAAHGLWSISRGLARGLESRGDYKRMMDHADMPRQGDRDGRGNLSMRALADFTLWFLRVCIDQVSFMSSLFDLNQLARRLQRFVQRYDLKPEAFRLLEEALLRGEFDRGEASRIAGLPERTARRVFTEVLELGLLASDTPKGPVSLRFPVDTLDELFPKLFPET, MGSDKIHHHHHHMEGKALRQGSIAGKGAPRNTASLIQYAQDHFDAAHFQGLMAIYGRPLADRAVALTHDRGRRVVDFVRCSYLGLDNHPQIVAGAVEAMKEYGTLHWSCARTRLNFSILGDLEAALSELFDARVITYTTVLAANMGALPLIASGHLTGGVKPLMVFDRLAHATLAFHKGTIAAETRVETIAHNDLEALEMLCRTNGSVAFVCDGVYSMGGSADLARLRRLQERYGLFLYIDDAHGVSIFGKHGEGFARSQMSGPLGERTIVAASLGKGFGASGGLIMLGTARQEELFRRFAVAHAFSASLNVAAIGAARASQQLHLTEELTELQQRLRSRTALFDSLVPTEQQGSPLPIRTVEIGDEMTAIGAARALLDRGFYTSAIFFPTVARGRAGLRLCPTAGHSEDDIRGLGIAIQDVLKEISGR, MGSDKIHHHHHHMEHLPEQYRQLFPTLQTHTMLASCSQSALAEPVSRAIQDYYDSLLYKGTNWKEAIEKTEFARNEFAKLIGAEPDEVAIVPSVSDALVSVASSLTAFGKKHVVYTDMDFPAVPHVWQAHSDYTVSVIPSIDGVLPLEQYETHISDETVLTCVPHVHYRDGYVQDIKAIAEISQRKGSLLFVDAYQSAGHIPIDVKEWGVDMLAAGTRKYLLGIPGVAFLYVRKELADALKPKASAWFGRESGFDGAYAKVARRFQTGTPAFISVYAAAAALSLLNHIGVSHIRDHVKTICADAVQYAAEKGLQLAAAQGGIQPGMVAIRDERASETAGLLKKKKVICAPRENVIRLAPHFYNTKEEMRHAIDEIAAKTIHK, MGSDKIHHHHHHMEIGIAASVSELDGVQWDALSDGSPLLSHAFLSALEHSGSVGEGTGWQPMPLTVRRDGKLIGAVPLYLKHHSYGEYVFDWSWAGAYTQHGGEYYPKLVAAVPFTPITGSRLLSHDPMLQAHMAEVLRDTVQRLQLSSAHVLFPDEQSAEVLSGQGWLRRQGVQFRWHNQGFASFDEFLMTLTHDKRKKIRQERRKVDAAGVICRRLLGAEIGEREWDFFYKCYVNTYLEHRSSPYLTQAFFHELGERLPGNVMLVLAERDGRRIGAALNLYDTDCLYGRYWGALAYVPNLHFELCYYQAQLFCIERGIRFFEGGAQGEHKLARGFVARETCSFHHIAHPDFEAAIRHFVSREAVGVSHYQQELDERAPYRKPG, MGSDKIHHHHHHMEINGHEIQFKDNAVFLEENKILILADVHVGMEEFIRRNGVLFPLNEKKELLKRLKNLIVEFKPEKLVFLGDFLHHFQKVPYKVYETIRELNSLLKNYEIIVIRGNHDIMLEYILKENTNFKILDYLLENKILMIHGDKKFDIDFNFDLLIMGHEHPVLEINKQRFPSYLEIVQNDFKILVAPAFSNIASGVKINELESNFMSPYLKKVKKEDIFPIIIGEEVLKFPDLSKIEKFL, MGSDKIHHHHHHMEINTEIAIAWMSARQGKVSYSMDYRDGPNSYDCSSSVYYALRSAGASSAGWAVNTEYMHDWLIKNGYELIAENVDWNAVRGDIAIWGMRGHSSGAGGHVVMFIDPENIIHCNWANNGITVNNYNQTAAASGWMYCYVYRLKSGASTQGKSLDTLVKETLAGNYGNGEARKAVLGNQYEAVMSVINGKTTTNQKTVDQLVQEVIAGKHGNGEARKKSLGSQYDAVQKRVTELLKKQPSEPFKAQEVNKPTETKTSQTELTGQATATKEEGDLSFNGTILKKAVLDKILGNCKKHDILPSYALTILHYEGLWGTSAVGKADNNWGGMTWTGQGNRPSGVTVTQGSARPSNEGGHYMHYASVDDFLTDWFYLLRAGGSYKVSGAKTFSEAIKGMFKVGGAVYDYAASGFDSYIVGASSRLKAIEAENGSLDKFDKATDIGDGSKDKIDITIEGIEVTINGITYELTKKPV
